Consider twelve molecules from patent publication US20260250737A1, “Engineered Luciferases and Luciferin Substrates” (Monod Bio, Inc., priority 2023, published 2026).

Positions count from the first letter of the chain named. Numbers in names are those of the source.

The subject of data set [1] is MBIO-301-derived split enzyme. Kind of data set: Bioluminescence emission of synthetic luciferin substrates with MBIO-301-derived split enzyme (FRB:FKBP, rapamycin). The class given is biochemical. The conditions noted are these: 1 nM MBIO-557, 1 nM MBIO-563, 10 μM Substrate, 100 nM Rapamycin. As for the experimental part:
The MBIO-301 enzyme was split into two components: MBIO-557 (Small portion) and MBIO-563 (Large portion). • MBIO-557 has the following sequence: NRVDEVRVYINGSGS (SEQ ID NO:2735) • MBIO-563 has the following sequence:
Bioluminescence emission of synthetic luciferin substrates was measured. The luciferin substrates were incubated with MBIO-301-derived split enzyme. The two-component MBIO-301 split luciferase enzyme was fused to the rapamycin inducible FRB:FKBP system and incubated with its complementary part at a 1:1 ratio. Each of the molecules was incubated with 1×PBS, 0.5% Propylene Glycol, 0.05% Anti-foam, 100 mM Imidazole, 10 mM Ascorbic Acid buffer, 100 nM Rapamycin and emission signal was measured using a Synergy H1 plate reader.
In-well concentrations: 1 nM MBIO-557 (EGFP-FRB-Small portion), 1 nM MBIO-563 (EGFP-FKBP-Large portion), 10 μM Substrate, 100 nM Rapamycin.

For data set [2], the target named is T1, LgLux_4039.
T1 chain: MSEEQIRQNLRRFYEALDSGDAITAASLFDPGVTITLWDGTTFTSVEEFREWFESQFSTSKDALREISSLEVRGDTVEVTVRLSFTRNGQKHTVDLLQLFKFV
Kind of data set: cell-based or functional assay.

The nature of data set [3]: Luciferase activity (brightness) of LuxSit-i variants. The class given is biochemical.
The nature of data set [4]: Stability of LuxSit-i variants (yeast display protease resistance, static light scattering). The data set is classed as physicochemical. As for the experimental part: In certain aspects, these polypeptides have improved stability at high temperatures as compared to LuxSit-i. For example, these polypeptides are stable at higher temperatures as compared to LuxSit-i. Stability may be measured by enzymatic activity and/or protein misfolding measured over a period of time. In certain embodiments, stability may be measured using static light scattering (SLS).
A single saturation mutagenesis (SSM) was performed to evaluate by yeast display the effect of single mutations in the stability of LuxSit-i (SEQ ID NO:1). The SSM library was transformed into electrocompetent cells of the strain EBY100. Twenty million cells were labeled with anti-myc FITC antibody in order to detect protein expression on the yeast surface by measuring fluorescence emission. Cells were sorted using a Sony SH800 cell sorter and those showing protein expression (FITC signal) were collected and grown. DNA was extracted from the sorted cells using conventional DNA extraction conventional methods. The DNA library was sequenced using Nanopore technology. Single amino acid substitutions that increase protein stability are enriched after sorting.
(§1) Single saturation mutagenesis (SSM) was performed to evaluate (by yeast display) the effect of single mutations in the stability of LuxSit-i-i. The SSM library was transformed into electrocompetent cells of the strain EBY100. Twenty million cells were labeled with an anti-myc FITC antibody to detect protein expression on the yeast surface by measuring the emission of fluorescence by FITC. Yeast were incubated with a mixture of 3.5 uM trypsin and 1.4 uM chymotrypsin (1/729 dilution of the stock solution) at 25° C. for 15 min. Cells were sorted using a Sony SH800 cell sorter and those showing protein expression (FITC signal) after protease incubation were collected and grown. DNA was extracted from the sorted cells using conventional DNA extraction conventional methods. The DNA library was sequenced using Nanopore technology. Single amino acid substitutions that increase protein stability are enriched after sorting.
as §1, with “LuxSit-i.” for “LuxSit-i-i.”, “antibody in order” for “antibody”, “10” for “3.5”, “4” for “1.4”, “(1/243” for “(1/729”
as §1, with “LuxSit-i.” for “LuxSit-i-i.”, “antibody in order” for “antibody”, “15” for “3.5”, “6” for “1.4”, “(1/162” for “(1/729”, “sorting. […]” for “sorting.”

Data set [5] can be described thus: Luciferase activity (brightness) of LuxSit-i variants. The data set is classed as biochemical. The following applies: Table 3; combined substitutions; relative to LuxSit-i. The procedure:
SSM was performed to evaluate the effect of single mutations on the luciferase activity of LuxSit-i. FIG. 3 graphically presents the mutation frequency at the positions found in the SSM as beneficial for increasing luciferase activity.
FIG. 4A provides data for luciferase activity for MBIO-148, MBIO-158 and Luxsit-i. MBIO-148, MBIO-158, and Luxsit-i were serially diluted starting from a final in-well concentration of 10,000 pM. Each dilution was combined with Diphenylterazine (DTZ) to a final in-well concentration of […]. Points shown are from the initial reading once the plate read was started.
FIG. 4B provides data for luciferase activity for MBIO-148, MBIO-301, MBIO-302, and LuxSit-i. MBIO-148, MBIO-301, MBIO-302, and Luxsit-i were serially diluted starting from a final in-well concentration of 500 pM. Each dilution was combined with DTZ to a final in-well concentration of 10 μM. Points shown are from the initial reading once the plate read was started.

Where [6] appears, read: among variants derived from MBIO-2859, Table 13.

For the molecule `O=c1c(Cc2ccccc2)nc2c(-c3ccc(F)cc3)[nH]c(-c3ccccc3)cn1-2` [2d], the “Fold Change with Rapamycin Addition at Initial Read” value in data set [1] was 46.2. The same measure, in the same setting: under `O=c1c(Cc2ccccc2)nc2c(-c3ccccc3)[nH]c(-c3ccc(O)cc3)cn1-2` [1c] stands 116.8; under `O=c1c(Cc2ccccc2)nc2c(-c3ccccc3)[nH]c(-c3ccccc3)cn1-2` [DTZ, Diphenylterazine, reference compound], 58.4.

As for `O=c1c(Cc2ccccc2)nc2c(-c3cccnc3)[nH]c(-c3ccccc3)cn1-2` [2p], in data set [1], the “Fold Change with Rapamycin Addition at Initial Read” value was 17.1.

B1: MBIO-5343 (peptide)
peptide: RVVIVRVYVNPTG
On to B1, for which, in data set [2], the “Baseline Signal (Normalized by expression)” value was found to be 20200 and the “Fold change upon Rap addition” value came to 1.8 fold.

B2: MBIO-4039_No Lysine Residues: LuxSit-i variant that lacks lysine residues, SEQ ID NO: 2737 (protein)
chain: MSGMSEEQIRQNLRRFYEALDSGDAITAASLFDPGVTITLWDGTTFTSVEEFREWFESQFSTSRDALREISSLEVRGDTVEVTVRLSFTRNGQRHTVDLLQLFRFVGNRVVAVRVYVNPT
In the case of B2, the “activity of variant that lacks lysine residues” value in data set [3] (all lysine residues substituted) was “retains activity”.

B3: MBIO-3073: MBIO-2466 variant (Table 12), SEQ ID NO:2711 (protein)
chain: MSEEQIRQNLRRFYEALDSGDADTAASLFDPGVTITLWDGTTFTSVEEFREWFERLFSTSKDALREIKSLEVRGDTVEVTVQLSFTRNGQKHTVDLLQLFKFVGNRVVDVRVYTNPTG
In the case of B3, the luciferase activity result in data set [3] (among variants derived from MBIO-2466, Table 12) is reported as “highest”.

B4: MBIO-4039: MBIO-2859 variant (Table 13), SEQ ID NO: 2730 (protein)
chain: B3 chain with D23I, R55S, L56Q, K68S, Q82R, D109A, T114V
On to B4, for which the stability entry in data set [4] (setting [6]) is “most stable”. The luciferase activity result in data set [3] (setting [6]) was “highest”.

B5: MBIO-5344 (peptide)
peptide: HVVAVRVYVNPTG
For the molecule B5, in data set [2], the “Baseline Signal (Normalized by expression)” value was determined as 23900 and the “Fold change upon Rap addition” value stood at 2 fold.

B6: MBIO-301: LuxSit-i variant F9N, Q64L, A85F, H87R, H99L, T108D, H113Y, W100F; SEQ ID NO 104 (protein)
chain: MSEEQIRQNLRRFYEALDSGDADTAASLFHPGVTIHLWDGVTFTSREEFREWFERLFSTSKDALREIKSLEVRGDTVEVHVQLHFTRNGQKHTVDLTHLFHFRGNRVDEVRVYINPTG
As to B6, the luciferase activity result in data set [3] (among mutants from combinatorial library, Table 10) is listed as “highest”.

B7: MBIO-148: LuxSit-i variant W100F_A85F_H87L_Q64W, SEQ ID NO: 2600 (SEQ ID NO 2 in Table 4) (protein)
chain: B6 chain with N9F, L64W, R87L, L99H, D108T, Y113H
For the molecule B7, the Brightness improvement result in data set [5] was “Increase”. In data set [4] (Table 3, combined substitutions, relative to LuxSit-i), the Stability improvement entry is listed as “Monomeric”.

B8: MBIO-2466: MBIO-301 variant, H30D H36T H80T H84S H92S H98Q H101R; SEQ ID NO 2703 (protein)
chain: B6 chain with H30D, H36T, H80T, H84S, H92S, H98Q, H101R
As to B8, the “luciferase activity, higher than MBIO-301” value in data set [3] (relative to MBIO-301) was “more than 5 ×”.
